Measured values published in article PMC6555636.

Legend:
[1] = target: PTEX150 (P. falciparum (endogenous in strain NF54attB)); assay: cryo-EM structure
[2] = target: EXP2 (P. falciparum (endogenous in strain NF54attB)); assay: cryo-EM structure

Substance	stoichiometry N [1]	stoichiometry N [2]
PTEX150 (natural protein)	7	
EXP2 (natural protein)		7
